Tests used:
[1] = molecular target: dynactin (purified from pig brains) (pig (endogenous in pig brain)) (UniProt F2Z5G5); assay: cryo-EM structure
[2] = molecular target: dynactin (purified from pig brains) (pig (endogenous in pig brain)) (UniProt F2Z5G5); assay: negative-stain EM with 3D classification
[3] = molecular target: dynein tail (HC^1-1455) complex (human) (UniProt Q14204); assay: negative-stain EM with 3D classification
[4] = molecular target: wild-type human cytoplasmic dynein-1, SNAPf-tagged, labelled with TMR or Alexa647 (human) (UniProt Q14204)

stoichiometry N [1]	percent of adaptor complexes with one dynein (with m5) [2]	percent of adaptor complexes with two dyneins (with m2 and m4) [3]	percent of adaptor complexes with two dyneins (with m2 and m5) [3]	percent of adaptor complexes with two dyneins (with m2 and m6) [3]	velocity of BICD2 complexes containing both fluorophores, and hence two dyneins [4]	Substance
2	69%	88%	17%	94%		dynein tail (HC^1-1455) complex (from UniProt Q14204;O43237;P63172;P63167;Q9NP97)
					1.08 μm/s	wild-type human cytoplasmic dynein-1, SNAPf-tagged, labelled with TMR or Alexa647 (from UniProt Q14204;O43237;P63172;P63167;Q9NP97) (complex)

From paper PMC5988349
